B1: EF-hand domain-containing protein 1 (Homo sapiens), Q5JVL4 (parent)
chain: MVSNPVHGLPFLPGTSFKDSTKTAFHRSQTLSYRNGYAIVRRPTVGIGGDRLQFNQLSQAELDELASKAPVLTYGQPKQAPPADFIPAHVAFDKKVLKFDAYFQEDVPMSTEEQYRIRQVNIYYYLEDDSMSVIEPVVENSGILQGKLIKRQRLAKNDRGDHYHWKDLNRGINITIYGKTFRVVDCDQFTQVFLESQGIELNPPEKMALDPYTELRKQPLRKYVTPSDFDQLKQFLTFDKQVLRFYAIWDDTDSMYGECRTYIIHYYLMDDTVEIREVHERNDGRDPFPLLMNRQRVPKVLVENAKNFPQCVLEISDQEVLEWYTAKDFIVGKSLTILGRTFFIYDCDPFTRRYYKEKFGITDLPRIDVSKREPPPVKQELPPYNGFGLVEDSAQNCFALIPKAPKKDVIKMLVNDNKVLRYLAVLESPIPEDKDRRFVFSYFLATDMISIFEPPVRNSGIIGGKYLGRTKVVKPYSTVDNPVYYGPSDFFIGAVIEVFGHRFIILDTDEYVLKYMESNAAQYSPEALASIQNHVRKREAPAPEAESKQTEKDPGVQELEALIDTIQKQLKDHSCKDNIREAFQIYDKEASGYVDRDMFFKICESLNVPVDDSLVKELIRMCSHGEGKINYYNFVRAFSN
B2: Pleckstrin homology domain-containing family N member 1 (Homo sapiens), Q494U1 (parent)
chain: MGNSHCVPQAPRRLRASFSRKPSLKGNREDSARMSAGLPGPEAARSGDAAANKLFHYIPGTDILDLENQRENLEQPFLSVFKKGRRRVPVRNLGKVVHYAKVQLRFQHSQDVSDCYLELFPAHLYFQAHGSEGLTFQGLLPLTELSVCPLEGSREHAFQITGPLPAPLLVLCPSRAELDRWLYHLEKQTALLGGPRRCHSAPPQRRLTRLRTASGHEPGGSAVCASRVKLQHLPAQEQWDRLLVLYPTSLAIFSEELDGLCFKGELPLRAVHINLEEKEKQIRSFLIEGPLINTIRVVCASYEDYGHWLLCLRAVTHREGAPPLPGAESFPGSQVMGSGRGSLSSGGQTSWDSGCLAPPSTRTSHSLPESSVPSTVGCSSQHTPDQANSDRASIGRRRTELRRSGSSRSPGSKARAEGRGPVTPLHLDLTQLHRLSLESSPDAPDHTSETSHSPLYADPYTPPATSHRRVTDVRGLEEFLSAMQSARGPTPSSPLPSVPVSVPASDPRSCSSGPAGPYLLSKKGALQSRAAQRHRGSAKDGGPQPPDAPQLVSSAREGSPEPWLPLTDGRSPRRSRDPGYDHLWDETLSSSHQKCPQLGGPEASGGLVQWI
B3: Splicing factor 45 (Homo sapiens), Q96I25 (parent)
chain: MSLYDDLGVETSDSKTEGWSKNFKLLQSQLQVKKAALTQAKSQRTKQSTVLAPVIDLKRGGSSDDRQIVDTPPHVAAGLKDPVPSGFSAGEVLIPLADEYDPMFPNDYEKVVKRQREERQRQRELERQKEIEEREKRRKDRHEASGFARRPDPDSDEDEDYERERRKRSMGGAAIAPPTSLVEKDKELPRDFPYEEDSRPRSQSSKAAIPPPVYEEQDRPRSPTGPSNSFLANMGGTVAHKIMQKYGFREGQGLGKHEQGLSTALSVEKTSKRGGKIIVGDATEKDASKKSDSNPLTEILKCPTKVVLLRNMVGAGEVDEDLEVETKEECEKYGKVGKCVIFEIPGAPDDEAVRIFLEFERVESAIKAVVDLNGRYFGGRVVKACFYNLDKFRVLDLAEQV
partner: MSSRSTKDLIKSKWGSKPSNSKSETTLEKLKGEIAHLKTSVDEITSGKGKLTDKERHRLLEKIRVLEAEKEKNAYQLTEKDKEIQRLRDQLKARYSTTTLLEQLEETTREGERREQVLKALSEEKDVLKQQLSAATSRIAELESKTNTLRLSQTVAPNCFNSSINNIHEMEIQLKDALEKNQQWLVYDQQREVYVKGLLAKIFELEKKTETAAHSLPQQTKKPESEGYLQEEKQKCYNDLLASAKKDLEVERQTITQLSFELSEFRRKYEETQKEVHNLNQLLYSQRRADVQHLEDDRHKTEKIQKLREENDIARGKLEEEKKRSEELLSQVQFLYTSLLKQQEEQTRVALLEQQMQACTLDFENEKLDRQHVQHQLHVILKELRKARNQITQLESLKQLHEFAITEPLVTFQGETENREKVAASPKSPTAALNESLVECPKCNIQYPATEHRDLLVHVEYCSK
B4: EF-hand domain-containing family member C2 (Homo sapiens), Q5JST6 (parent)
chain: MALPLLPGNSFNRNVGKEKFHKSQHWGFCNNVMMLVSDEKPGIGGEPLLGQKIKPKCSIYPKGDGSDVPSWVAFDKQVLSFDAYLEEEVLDKSQTNYRIRYYKIYFYPEDDTIQVNEPEVKNSGLLQGTSIRRHRITLPPPDEDQFYTVYHFNVGTEVVFYGRTFKIYDCDAFTRNFLRKIGVKVNPPVQCPEDPYMKIRREVVEHVEPLRPYESLDTLKQFLQYHGKILCFFCLWDDSVSMFGDRRELILHYFLCDDTIEIKELLPHSSGRDALKMFLRRSKLPKNCPPRVYQPGQITDRAVLNSYGDFIKNQADGYLFDRYKLGKVDQEFYKDSDLSLGVTINVWGRKVLLYDCDEFTKSYYKSKYGIENFTSVSCKPPSPPPKIERKFPPYNGFGSEEDSLRNCIDLKPTPHRRNFKKFMEKDSYGSKSNILRFFAKLVTDKCVDLDRMFVISYYLGDDTISVFEPIERNSGIAGGMFLKRSRVKKPGQEVFKSELSEYIKAEELYIGVTVNVNGYLFRLLNADEYTLNYMEQNTDKYPFSNLKLALQKLKQEEGKSRELKQVFKAADSKHTNMVDYNTFRDILMSLTVGNLAEQEFVTIARHYRVPEGTCSDMDFLIALAHEKFKKNMFENFDTFIYSCVYEDREKKNVLPTKDIKRLCKSSRLPLSDDLLESLLSRFEDSEKQIDYKSFFSALNWRKNPVPELQPASYLKERCEDVWLGMPSPIPAKYIDYWTFLKDAFGLEEE
B5: Stabilizer of axonemal microtubules 1 (Homo sapiens), Q8IYX7 (parent)
chain: MKTKCICELCSCGRHHCPHLPTKIYDKTEKPCLLSEYTENYPFYHSYLPRESFKPRREYQKGPIPMEGLTTSRRDFGPHKVAPVKVHQYDQFVPSEENMDLLTTYKKDYNPYPVCRVDPIKPRDSKYPCSDKMECLPTYKADYLPWNQPRREPLRLEHKYQPASVRFDNRTTHQDDYPIKGLVKTISCKPLAMPKLCNIPLEDVTNYKMSYVAHPVEKRFVHEAEKFRPCEIPFESLTTQKQSYRGLMGEPAKSLKPLARPPGLDMPFCNTTEFRDKYQAWPMPRMFSKAPITYVPPEDRMDLLTTVQAHYTCPKGAPAQSCRPALQIKKCGRFEGSSTTKDDYKQWSSMRTEPVKPVPQLDLPTEPLDCLTTTRAHYVPHLPINTKSCKPHWSGPRGNVPVESQTTYTISFTPKEMGRCLASYPEPPGYTFEEVDALGHRIYKPVSQAGSQQSSHLSVDDSENPNQRELEVLA
partner: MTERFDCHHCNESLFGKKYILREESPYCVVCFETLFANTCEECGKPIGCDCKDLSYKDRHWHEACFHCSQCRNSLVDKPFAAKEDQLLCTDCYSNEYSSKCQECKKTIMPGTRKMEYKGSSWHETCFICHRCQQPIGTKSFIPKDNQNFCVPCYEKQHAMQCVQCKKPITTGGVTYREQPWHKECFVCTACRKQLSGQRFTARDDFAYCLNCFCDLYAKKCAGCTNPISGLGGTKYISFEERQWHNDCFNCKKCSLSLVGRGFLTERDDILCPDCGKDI
B6: Ribose-phosphate pyrophosphokinase 1 (Homo sapiens), P60891 (parent)
chain: MPNIKIFSGSSHQDLSQKIADRLGLELGKVVTKKFSNQETCVEIGESVRGEDVYIVQSGCGEINDNLMELLIMINACKIASASRVTAVIPCFPYARQDKKDKSRAPISAKLVANMLSVAGADHIITMDLHASQIQGFFDIPVDNLYAEPAVLKWIRENISEWRNCTIVSPDAGGAKRVTSIADRLNVDFALIHKERKKANEVDRMVLVGDVKDRVAILVDDMADTCGTICHAADKLLSAGATRVYAILTHGIFSGPAISRINNACFEAVVVTNTIPQEDKMKHCSKIQVIDISMILAEAIRRTHNGESVSYLFSHVPL
B7: Zinc finger protein with KRAB and SCAN domains 4 (Homo sapiens), Q969J2 (parent)
chain: MAREPRKNAALDAQSAEDQTGLLTVKVEKEEASALTAEVRAPCSPARGPERSRQRFRGFRYPEAAGPREALSRLRELCGQWLQPEMHSKEQILELLVLEQFLTILPGNLQSWVREQHPESGEEVVVLLEYLERQLDEPAPQVPVGDQGQELLCCKMALLTQTQGSQSSQCQPMKALFKHESLGSQPLHDRVLQVPGLAQGGCCREDAMVASRLTPGSQGLLKMEDVALTLTPGWTQLDSSQVNLYRDEKQENHSSLVSLGGEIQTKSRDLPPVKKLPEKEHGKICHLREDIAQIPTHAEAGEQEGRLQRKQKNAIGSRRHYCHECGKSFAQSSGLTKHRRIHTGEKPYECEDCGKTFIGSSALVIHQRVHTGEKPYECEECGKVFSHSSNLIKHQRTHTGEKPYECDDCGKTFSQSCSLLEHHKIHTGEKPYQCNMCGKAFRRNSHLLRHQRIHGDKNVQNPEHGESWESQGRTESQWENTEAPVSYKCNECERSFTRNRSLIEHQKIHTGEKPYQCDTCGKGFTRTSYLVQHQRSHVGKKTLSQ

Variants of: B1
Conditions: with itf2_human TCF4, P15884
Target sequence in this assay (P15884 whole entry): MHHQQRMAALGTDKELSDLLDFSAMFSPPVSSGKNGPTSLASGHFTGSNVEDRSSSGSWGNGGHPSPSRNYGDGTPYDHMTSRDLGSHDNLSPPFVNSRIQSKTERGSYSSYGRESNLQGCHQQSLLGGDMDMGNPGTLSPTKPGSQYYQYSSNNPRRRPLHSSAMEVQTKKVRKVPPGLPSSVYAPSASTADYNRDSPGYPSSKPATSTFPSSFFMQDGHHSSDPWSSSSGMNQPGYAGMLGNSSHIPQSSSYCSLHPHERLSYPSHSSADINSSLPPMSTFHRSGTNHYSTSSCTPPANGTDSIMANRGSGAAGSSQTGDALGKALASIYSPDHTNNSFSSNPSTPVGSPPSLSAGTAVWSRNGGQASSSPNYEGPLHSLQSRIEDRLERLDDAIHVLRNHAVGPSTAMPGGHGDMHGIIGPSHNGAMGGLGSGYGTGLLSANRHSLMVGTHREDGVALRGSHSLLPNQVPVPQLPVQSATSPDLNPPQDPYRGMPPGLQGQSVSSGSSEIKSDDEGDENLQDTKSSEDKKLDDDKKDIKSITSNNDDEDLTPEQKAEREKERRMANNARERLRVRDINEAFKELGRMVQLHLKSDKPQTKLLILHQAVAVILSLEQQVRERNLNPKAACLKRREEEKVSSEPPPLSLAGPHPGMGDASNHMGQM
With Y102C the “effect of a mutation on the interaction” value was “with no effect”.

Variants of: B1
Conditions: with ikzf3_human IKZF3, Q9UKT9
For Y102C, the “effect of a mutation on the interaction” value was “with no effect”.

Variants of: B2
Conditions: with itf2_human TCF4, P15884
Target sequence in this assay (P15884 whole entry): as above
With R487P the “effect of a mutation on the interaction” value was “with no effect”.

Variants of: B2
Conditions: with traf1_human TRAF1, Q13077
For R487P, the “effect of a mutation on the interaction” value was “with no effect”.

Variants of: B2
Conditions: with taxb1_human TAX1BP1, Q86VP1
Sequence of taxb1_human TAX1BP1, Q86VP1 (Q86VP1 whole entry): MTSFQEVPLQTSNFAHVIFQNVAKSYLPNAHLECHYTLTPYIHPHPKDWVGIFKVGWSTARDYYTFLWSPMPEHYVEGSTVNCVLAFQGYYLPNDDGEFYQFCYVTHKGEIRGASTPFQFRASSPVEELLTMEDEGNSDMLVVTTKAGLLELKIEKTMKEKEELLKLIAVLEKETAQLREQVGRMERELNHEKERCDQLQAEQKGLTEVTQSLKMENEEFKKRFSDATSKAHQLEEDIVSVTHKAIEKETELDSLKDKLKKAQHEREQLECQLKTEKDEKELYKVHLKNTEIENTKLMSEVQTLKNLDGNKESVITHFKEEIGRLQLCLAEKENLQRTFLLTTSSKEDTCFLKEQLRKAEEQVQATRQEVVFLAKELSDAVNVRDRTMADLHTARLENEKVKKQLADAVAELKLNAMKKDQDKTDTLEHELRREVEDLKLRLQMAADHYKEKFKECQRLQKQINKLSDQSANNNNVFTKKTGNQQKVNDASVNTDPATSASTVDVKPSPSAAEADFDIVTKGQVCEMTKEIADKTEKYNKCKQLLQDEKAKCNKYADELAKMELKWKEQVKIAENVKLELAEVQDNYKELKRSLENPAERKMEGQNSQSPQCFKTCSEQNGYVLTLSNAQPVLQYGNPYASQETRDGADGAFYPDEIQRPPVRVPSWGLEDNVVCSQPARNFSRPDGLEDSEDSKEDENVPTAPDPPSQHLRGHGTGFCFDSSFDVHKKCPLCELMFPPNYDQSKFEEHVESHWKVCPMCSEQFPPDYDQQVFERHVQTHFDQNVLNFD
For R487P, the “effect of a mutation on the interaction” value was “with no effect”.

Variants of: B3
Conditions: with cep55_human CEP55, Q53EZ4
With T224I the “effect of a mutation on the interaction” value was “with no effect”.

Variants of: B4
Conditions: with plod3_human PLOD3, O60568
Sequence of plod3_human PLOD3, O60568 (O60568 whole entry): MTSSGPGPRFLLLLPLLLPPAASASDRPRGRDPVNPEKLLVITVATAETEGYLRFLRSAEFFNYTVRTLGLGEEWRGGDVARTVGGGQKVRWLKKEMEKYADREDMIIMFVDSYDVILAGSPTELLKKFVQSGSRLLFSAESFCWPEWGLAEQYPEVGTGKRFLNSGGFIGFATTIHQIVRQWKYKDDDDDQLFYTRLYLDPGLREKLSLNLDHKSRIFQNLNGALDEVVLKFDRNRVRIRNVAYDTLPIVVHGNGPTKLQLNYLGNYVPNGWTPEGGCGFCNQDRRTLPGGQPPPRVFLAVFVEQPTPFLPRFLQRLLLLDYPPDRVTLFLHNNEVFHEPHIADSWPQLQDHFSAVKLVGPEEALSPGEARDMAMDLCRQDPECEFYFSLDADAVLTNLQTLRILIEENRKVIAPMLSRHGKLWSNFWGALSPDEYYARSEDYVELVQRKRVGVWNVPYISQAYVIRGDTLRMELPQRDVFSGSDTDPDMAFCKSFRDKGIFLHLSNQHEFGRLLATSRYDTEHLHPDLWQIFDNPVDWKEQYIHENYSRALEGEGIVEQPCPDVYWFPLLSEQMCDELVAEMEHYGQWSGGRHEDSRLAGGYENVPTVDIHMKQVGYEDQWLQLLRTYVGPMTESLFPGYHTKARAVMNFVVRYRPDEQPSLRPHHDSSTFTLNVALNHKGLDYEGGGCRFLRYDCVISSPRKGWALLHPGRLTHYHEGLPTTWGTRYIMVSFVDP
For E507Q, the “effect of a mutation on the interaction” value was “disrupting interaction strength”. In the case of N31S, the “effect of a mutation on the interaction” value is reported as “disrupting interaction strength”.

Variants of: B4
Conditions: with ptk6_human PTK6, Q13882
For N31S, the “effect of a mutation on the interaction” value was “disrupting interaction strength”.

Variants of: B4
Conditions: with ercc3_human ERCC3, P19447
Sequence of ercc3_human ERCC3, P19447 (P19447 whole entry): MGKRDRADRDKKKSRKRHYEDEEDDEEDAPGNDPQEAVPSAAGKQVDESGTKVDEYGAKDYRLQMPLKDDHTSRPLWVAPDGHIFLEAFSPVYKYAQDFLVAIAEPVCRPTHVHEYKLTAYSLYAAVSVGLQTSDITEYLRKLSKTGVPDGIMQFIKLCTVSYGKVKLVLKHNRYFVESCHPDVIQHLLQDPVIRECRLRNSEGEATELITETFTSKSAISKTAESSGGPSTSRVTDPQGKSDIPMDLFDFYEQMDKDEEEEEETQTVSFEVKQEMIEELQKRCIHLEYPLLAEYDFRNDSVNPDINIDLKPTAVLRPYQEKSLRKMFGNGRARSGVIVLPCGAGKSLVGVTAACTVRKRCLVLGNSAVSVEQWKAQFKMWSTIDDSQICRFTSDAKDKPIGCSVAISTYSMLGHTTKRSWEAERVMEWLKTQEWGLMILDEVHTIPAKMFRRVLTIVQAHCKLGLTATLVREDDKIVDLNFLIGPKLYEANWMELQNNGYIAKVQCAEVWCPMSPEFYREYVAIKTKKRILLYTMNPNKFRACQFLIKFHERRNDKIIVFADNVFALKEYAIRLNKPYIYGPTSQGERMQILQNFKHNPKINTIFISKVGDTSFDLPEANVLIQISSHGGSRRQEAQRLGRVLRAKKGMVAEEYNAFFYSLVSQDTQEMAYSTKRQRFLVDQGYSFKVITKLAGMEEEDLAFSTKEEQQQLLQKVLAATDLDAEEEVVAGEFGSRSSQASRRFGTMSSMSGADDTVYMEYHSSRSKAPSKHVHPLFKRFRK
N31S was tested, and the “effect of a mutation on the interaction” value was “disrupting interaction strength”.

Variants of: B4
Conditions: with mk09_human MAPK9, P45984
For N31S, the “effect of a mutation on the interaction” value was “disrupting interaction strength”.

Variants of: B4
Conditions: with ercc3_human ERCC3, P19447
Remark: another data set of the same source
In the case of V376I, the “effect of a mutation on the interaction” value is reported as “with no effect”.

Variants of: B4
Conditions: with ptk6_human PTK6, Q13882
Remark: another data set of the same source
For V376I, the “effect of a mutation on the interaction” value was “with no effect”.

Variants of: B4
Conditions: with mk09_human MAPK9, P45984
Remark: another data set of the same source
In the case of V376I, the “effect of a mutation on the interaction” value is reported as “with no effect”.

Variants of: B4
Conditions: with plod3_human PLOD3, O60568
Remark: another data set of the same source
In the case of V376I, the “effect of a mutation on the interaction” value is reported as “with no effect”.

Variants of: B5
Conditions: with fhl2_human FHL2, Q14192
With N464K the “effect of a mutation on the interaction” value was “disrupting interaction strength”. With D118G the “effect of a mutation on the interaction” value was “disrupting interaction strength”.

Variants of: B6
Conditions: with gors2_human GORASP2, Q9H8Y8
In the case of E43D, the “effect of a mutation on the interaction” value is reported as “with no effect”. For D183H, the “effect of a mutation on the interaction” value was “with no effect”.

Variants of: B6
Conditions: with prps2_human PRPS2, P11908
With E43D the “effect of a mutation on the interaction” value was “disrupting interaction strength”. For D183H, the “effect of a mutation on the interaction” value was “disrupting interaction strength”.

Variants of: B6
Conditions: with gors2_human GORASP2, Q9H8Y8
Remark: another data set of the same source
D203H was tested, and the “effect of a mutation on the interaction” value was “with no effect”.

Variants of: B6
Conditions: with prps2_human PRPS2, P11908
Remark: another data set of the same source
With D203H the “effect of a mutation on the interaction” value was “disrupting interaction strength”.

Variants of: B7
Conditions: with zsc32_human ZSCAN32, Q9NX65
Sequence of zsc32_human ZSCAN32, Q9NX65 (Q9NX65 whole entry): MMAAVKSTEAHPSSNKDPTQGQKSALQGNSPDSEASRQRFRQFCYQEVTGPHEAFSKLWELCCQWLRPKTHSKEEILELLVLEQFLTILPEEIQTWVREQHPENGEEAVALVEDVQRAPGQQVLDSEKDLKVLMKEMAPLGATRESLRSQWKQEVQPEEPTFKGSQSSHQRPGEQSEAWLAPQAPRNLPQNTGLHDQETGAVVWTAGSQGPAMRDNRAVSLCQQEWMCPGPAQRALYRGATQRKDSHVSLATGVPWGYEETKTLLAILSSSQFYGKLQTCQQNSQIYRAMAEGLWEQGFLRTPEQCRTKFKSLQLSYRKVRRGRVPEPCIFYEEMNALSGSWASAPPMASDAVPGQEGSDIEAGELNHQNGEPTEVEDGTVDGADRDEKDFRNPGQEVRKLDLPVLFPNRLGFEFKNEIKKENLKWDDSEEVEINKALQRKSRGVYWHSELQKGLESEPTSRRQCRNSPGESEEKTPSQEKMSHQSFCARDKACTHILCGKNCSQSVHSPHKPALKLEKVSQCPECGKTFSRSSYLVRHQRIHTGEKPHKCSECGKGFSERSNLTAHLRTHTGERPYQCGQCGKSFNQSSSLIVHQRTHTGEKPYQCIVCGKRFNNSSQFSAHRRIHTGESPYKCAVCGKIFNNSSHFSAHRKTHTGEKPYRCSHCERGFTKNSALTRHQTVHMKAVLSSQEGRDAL
L22F was tested, and the “effect of a mutation on the interaction” value was “with no effect”.

Variants of: B7
Conditions: with zksc7_human ZKSCAN7, Q9P0L1
Sequence of zksc7_human ZKSCAN7, Q9P0L1 (Q9P0L1 whole entry): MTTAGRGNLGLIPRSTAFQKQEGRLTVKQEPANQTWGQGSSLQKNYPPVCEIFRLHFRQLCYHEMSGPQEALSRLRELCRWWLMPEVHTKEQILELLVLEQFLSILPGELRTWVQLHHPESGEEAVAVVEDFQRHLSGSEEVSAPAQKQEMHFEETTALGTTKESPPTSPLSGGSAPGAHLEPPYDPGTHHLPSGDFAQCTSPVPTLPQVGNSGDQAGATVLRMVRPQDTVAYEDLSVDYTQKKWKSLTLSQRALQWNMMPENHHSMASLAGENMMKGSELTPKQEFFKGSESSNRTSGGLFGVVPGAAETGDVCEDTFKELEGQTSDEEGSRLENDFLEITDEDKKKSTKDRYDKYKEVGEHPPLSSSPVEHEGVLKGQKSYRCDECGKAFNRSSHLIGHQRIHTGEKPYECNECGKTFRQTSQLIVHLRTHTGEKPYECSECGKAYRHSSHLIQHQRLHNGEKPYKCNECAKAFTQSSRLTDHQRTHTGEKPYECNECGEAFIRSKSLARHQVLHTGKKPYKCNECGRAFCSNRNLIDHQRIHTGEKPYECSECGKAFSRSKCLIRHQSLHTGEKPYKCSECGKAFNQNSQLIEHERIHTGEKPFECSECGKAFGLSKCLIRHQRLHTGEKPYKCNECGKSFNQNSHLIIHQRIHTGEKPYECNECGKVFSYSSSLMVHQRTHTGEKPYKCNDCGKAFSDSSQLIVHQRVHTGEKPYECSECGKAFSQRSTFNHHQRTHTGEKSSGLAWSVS
With L22F the “effect of a mutation on the interaction” value was “with no effect”.

Variants of: B7
Conditions: with znf24_human ZNF24, P17028
With L22F the “effect of a mutation on the interaction” value was “with no effect”.

Variants of: B7
Conditions: with zn496_human ZNF496, Q96IT1
Sequence of zn496_human ZNF496, Q96IT1 (Q96IT1 whole entry): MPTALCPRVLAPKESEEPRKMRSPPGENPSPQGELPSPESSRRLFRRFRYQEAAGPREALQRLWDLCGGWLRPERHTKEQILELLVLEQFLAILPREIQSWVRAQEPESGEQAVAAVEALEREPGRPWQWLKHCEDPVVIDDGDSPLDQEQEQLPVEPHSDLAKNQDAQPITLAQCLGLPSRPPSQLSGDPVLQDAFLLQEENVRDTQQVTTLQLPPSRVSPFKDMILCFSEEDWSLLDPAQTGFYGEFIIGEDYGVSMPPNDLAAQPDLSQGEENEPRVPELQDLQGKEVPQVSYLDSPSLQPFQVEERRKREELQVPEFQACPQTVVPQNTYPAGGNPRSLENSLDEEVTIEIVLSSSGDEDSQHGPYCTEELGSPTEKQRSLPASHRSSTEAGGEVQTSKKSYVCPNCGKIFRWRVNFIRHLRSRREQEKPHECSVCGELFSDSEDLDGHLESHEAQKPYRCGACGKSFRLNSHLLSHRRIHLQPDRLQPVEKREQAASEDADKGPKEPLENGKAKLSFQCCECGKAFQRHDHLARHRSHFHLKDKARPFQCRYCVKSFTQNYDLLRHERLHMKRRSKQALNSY
For L22F, the “effect of a mutation on the interaction” value was “with no effect”.

Reference: IntAct's records for PubMed 31515488
